Experimental data from patent US5780025A, “Compositions and methods for the synthesis and assay of enkephalinase” (Genentech, Inc., priority 1993, dated 1998).

Columns and labels:
Test in all cases: Fluorometric determination of kinetic parameters for hydrolysis of substrates by enkephalinase
Assay type in all cases: biochemical, rat
[1] = substrate: CN(C)c1cccc2c(S(=O)(=O)NCC(=O)N[C@@H](Cc3ccc(O)cc3)C(=O)NCC(=O)O)cccc12; conditions: other: fluorescence after 1 hr incubation, 1 μM to 1 mM substrate, 1 ng purified enzyme, 37° C., pH 7.4
Method: (§1) Fluorescence measurements were made using a Perkin Elmer, model 650-10S spectrofluorometer, equipped with a temperature controlled cell-holder, maintained at 37° C. Two procedures were used. The first combined a 50 μl solution of dansylated peptide with 50 μl of purified rat kidney enkephalinase in 50 mM, pH 7.4 HEPES buffer, containing 0.1% Tween 20, yielding a substrate concentration from 1 μM to 1 mM. After 1 hour at 37° C., 500 μl of 0.1M EDTA were added to the tubes. The 600 μl mixture was transferred into a quartz cuvette, and fluorescence measured. For dansyl-Gly-Trp-Gly, the excitation wavelength was set at 280 nm and emission at 360 nm. For the two tyrosine containing peptides, the excitation wavelength was at 277 nm and emission at 315 nm. Both slits were set at 2 nm. Known amounts of Trp-Gly and Tyr-Gly, diluted in the same mixture (100 μl HEPES, Tween 20, 500 μl EDTA), were run in parallel as standards. The fluorescence in the incubation media could thus be related to the amounts of hydrolyzed substrates. The second procedure permitted continuous monitoring of the hydrolysis of the dansylated peptides. A 500 μl solution of substrate at appropriate concentration, in 50 mM, pH 7.4 HEPES buffer containing 0.1% Tween 20 was pipetted in a quartz cuvette, and allowed to equilibrate in the cell holder of the fluorimeter at 37° C. Ten μl of purified rat kidney enkephalinase was added and the increase in tryptophan or tyrosine fluorescence was continuously monitored (excitation=280 nm, emission=360 nm for tryptophan, excitation 277, emission 315 for tyrosine). To minimize oxidation of tryptophan the intensity of excitation was reduced by adjusting the fluorimeter shutter so that a 10^-4 M solution of tryptophan in water gave a fluorescence of 20.0 with excitation set at 280 nm, emission at 360 nm, both slits at 2 nm, and sensitivity at 0.1. Under these conditions, tryptophan fluorescence was stable for over 2 hr.
(§2) The kinetic parameters for the hydrolysis of dansyl-Gly-Trp-Gly, dansyl-Gly-Tyr-Gly and Dansyl-Gly-Tyr-Gly-NH2 by purified rat kidney enkephalinase were measured by incubating increasing concentrations of the substrates with the enzyme and stopping the reaction by the addition of EDTA before fluorescence measurements were taken (Table 4).
(§3) Km and kcat values for substrates III, IV and V were obtained by measuring the increase in tryptophan or tyrosine fluorescence after 1 hr. incubations of increasing concentrations of substrates (from 1 μM to 1 mM) with 1 ng purified enzyme at 37° C. The kcat values for these substrates and peptides I and II were also obtained by HPLC analysis of 1 hr. incubations of 1 mM peptides with 200 ng (substrate I), 50 ng (substrates II and V), or 10 ng (substrates III and IV) enzyme. The kcat values obtained by both methods for substrates III, IV and V were in close agreement.

[2] = substrate: NCC(=O)N[C@@H](Cc1c[nH]c2ccccc12)C(=O)NCC(=O)O; conditions: other: peptides I and II: HPLC analysis of 1 hr incubations of 1 mM peptide with 200 ng (I) or 50 ng (II) enzyme; pH 7.4; 37.0 °C
Method: as §1, §2, §3

[3] = substrate: CN(C)c1cccc2c(S(=O)(=O)NCC(=O)N[C@@H](Cc3c[nH]c4ccccc34)C(=O)NCC(=O)O)cccc12; conditions: other: fluorescence after 1 hr incubation, 1 μM to 1 mM substrate, 1 ng purified enzyme, 37° C., pH 7.4
Method: as §1, §2, §3

[4] = substrate: CN(C)c1cccc2c(S(=O)(=O)NCC(=O)N[C@@H](Cc3ccc(O)cc3)C(=O)NCC(N)=O)cccc12; conditions: other: fluorescence after 1 hr incubation, 1 μM to 1 mM substrate, 1 ng purified enzyme, 37° C., pH 7.4
Method: as §1, §2, §3

[5] = substrate: CC(=O)NCC(=O)N[C@@H](Cc1c[nH]c2ccccc12)C(=O)NCC(=O)O; conditions: other: peptides I and II: HPLC analysis of 1 hr incubations of 1 mM peptide with 200 ng (I) or 50 ng (II) enzyme; pH 7.4; 37.0 °C
Method: as §1, §2, §3

B1: purified rat kidney enkephalinase (Rattus norvegicus) (protein)
chain: MGRSESQMDITDINAPKPKKKQRWTPLEISLSVLVLLLTIIAVTMIALYATYDDGICKSSDCIKSAARLIQNMDASAEPCTDFFKYACGGWLKRNVIPETSSRYSNFDILRDELEVILKDVLQEPKTEDIVAVQKAKTLYRSCINESAIDSRGGQPLLTLLPDIYGWPVASQNWEQTYGTSWTAEKSIAQLNSKYGKKVLINFFVGTDDKNSTQHIIHFDQPRLGLPSRDYYECTGIYKEACTAYVDFMISVARLIRQEQRLPIDENQLSLEMNKVMELEKEIANATTKPEDRNDPMLLYNKMTLAKLQNNFSLEINGKPFSWSNFTNEIMSTVNINIQNEEEVVVYAPEYLTKLKPILTKYSPRDLQNLMSWRFIMDLVSSLSRNYKESRNAFRKALYGTTSETATWRRCANYVNGNMENAVGRLYVEAAFAGESKHVVEDLIAQIREVFIQTLDDLTWMDAETKKKAEEKALAIKERIGYPDDIISNENKLNNEYLELNYKEEEYFENIIQNLKFSQSKQLKKLREKVDKDEWISGAAVVNAFYSSGRNQIVFPAGILQPPFFSARQSNSLNYGGIGMVIGHEITHGFDDNGRNFNKDGDLVDWWTQQSANNFKDQSQCMVYQYGNFTWDLAGGQHLNGINTLGENIADNGGIGQAYRAYQNYVKKNGEEKLLPGLDLNHKQLFFLNFAQVWCGTYRPEYAVNSIKTDVHSPGNFRIIGTLQNSAEFADAFHCRKNSYMNPERKCRVW
notes: Rat kidney enkephalinase was purified to apparent homogeneity; from tissue; host or cells: rat kidney (male rats, membrane fraction, Triton X-100 solubilised)
Km [1]: 41 µM
kcat [1]: 19.05 s⁻¹
kcat/Km [1]: 467000 M⁻¹ s⁻¹
kcat [2]: 0.883 s⁻¹
Km [3]: 30 µM
kcat [3]: 15 s⁻¹
kcat/Km [3]: 500000 M⁻¹ s⁻¹
Km [4]: 90 µM
kcat [4]: 4.13 s⁻¹
kcat/Km [4]: 50000 M⁻¹ s⁻¹
kcat [5]: 3.63 s⁻¹
